We go through 19 molecules from article PMC2916699 (Journal of molecular biology, 2009).

Where no end group is shown, it is not given here. The star is where a group is joined. Dansyl = CN(C)c1cccc2c(S(=O)(=O)*)cccc12

This test deals with protein farnesyltransferase (FTase), wild type (UniProt Q04631 1-377; Q02293 1-437). The experiment in a line: fluorescence polarisation. In general terms: Polarisation of emitted light reports the rotation of a fluorescent probe.
What is called Kd is the free concentration of one partner at which half of the binding sites on the other are occupied at equilibrium, for simple one-to-one binding. A low value points to tighter binding. For the molecule Dansyl-TKCSLM [dansyl-TKCSLM], the equilibrium dissociation constant (Kd) amounted to 8 ± 2 nM.

Dansyl-TKCRIS [dansyl-TKCRIS] came in with a dissociation constant Kd of 12 ± 2 nM. Dansyl-TKCTLQ [dansyl-TKCTLQ] came in with a Kd of 7 ± 1 nM. Next, Dansyl-TKCSIM [dansyl-TKCSIM]: 6 ± 2 nM; Dansyl-TKCNLQ [dansyl-TKCNLQ]: 8 ± 1 nM.

With Dansyl-TKCSLC (cysteine pairing not given here) [dansyl-TKCSLC], the Kd turned out to be 5 ± 2 nM. In the case of Dansyl-TKCSIS [dansyl-TKCSIS] it was 3.4 ± 0.8 nM; in that of Dansyl-TKCGIM [dansyl-TKCGIM], 3.6 ± 0.7 nM. Turning to Dansyl-TKCSLG [dansyl-TKCSLG], the Kd is 3.4 ± 0.7 nM. On to Dansyl-TKCLVM [dansyl-TKCLVM], for which the dissociation constant Kd worked out at 6 ± 2 nM. In the case of Dansyl-TKCYVM [dansyl-TKCYVM], the dissociation constant Kd was determined as 12 ± 4 nM. In the case of Dansyl-TKCNIM [dansyl-TKCNIM] it was 5 ± 1 nM; in that of Dansyl-TKCITQ [dansyl-TKCITQ], 3.6 ± 0.8 nM. As to Dansyl-TKCVVT [dansyl-TKCVVT], binding was put at a Kd of 7 ± 3 nM. In the case of Dansyl-TKCLTS [dansyl-TKCLTS], binding was characterised by a dissociation constant (Kd) of 5 ± 1 nM.

Dansyl-TKCTKF [dansyl-TKCTKF]: the Kd is 6 ± 1 nM. Molecule Dansyl-TKCTMS [dansyl-TKCTMS] showed a Kd of 6 ± 2 nM. In the case of Dansyl-TKCAVQ [dansyl-TKCAVQ], the dissociation constant (Kd) was 13 ± 3 nM. Molecule Dansyl-TKCIVA [dansyl-TKCIVA] came in with an equilibrium dissociation constant (Kd) of 5 ± 2 nM.
